B1: aCcr1 (natural protein, Saccharolobus islandicus REY15A, UniProt F0NBE5 1-58, looked up)
chain: MRVVTFKVEEDLLELLDRYAIKYGLNRSEAIRKAIEKMVRDELSKERVPVARVEKIKL
B2: aCcr2 (natural protein, Saccharolobus islandicus REY15A, UniProt F0NEU4 1-57, looked up)
chain: MVRVITFKAEEELLVKLDLFALNSRMSRSEIIRMAIEKYLEEAAGGIRTRDRRLSRQ
B3: aCcr3 (natural protein, Saccharolobus islandicus REY15A, UniProt F0NFD7 1-50, looked up)
chain: MKIITVKLPEQFLEAIDELVNTGRYGSRSEVIRAAIGDFIRKELWVTTEE
B4: SiRe_1373 (natural protein, Saccharolobus islandicus REY15A, UniProt F0NI75 1-45, looked up)
chain: MRKVVSVRLKEDVLRDVDIYTRKLGLNSRTEFIKQAIEFYIKSKS
B5: SiRe_0131 (natural protein, Saccharolobus islandicus REY15A, UniProt F0NG80 1-74, looked up)
chain: MEKIVKVNDTTYILEDERSVVITFKLEENILSMVDEIVKKLGYDYRSDFIRDAIEKYINYLKSSSNNSKMNINE

Key:
[1] = test system: aCcr2 (Saccharolobus islandicus REY15A); assay: EMSA
[2] = test system: aCcr3 (Saccharolobus islandicus REY15A); assay: EMSA
[3] = test system: aCcr1 (Saccharolobus islandicus REY15A); assay: EMSA
[4] = target: the molecule itself; assay: SEC

Row | Molecule | stoichiometry N [4] | other results
1 | PcdvA | – | Kd [1]: 245 nM; Kd [2]: 36 nM; Kd [3]: 93.5 nM
2 | B1 | 2 | –
3 | B2 | 2 | –
4 | B3 | 2 | –
5 | B4 | 2 | –
6 | B5 | 2 | –
